Measurements as given in patent publication US6881404.

Biological target: T1, P-selectin glycoprotein ligand-1 (UniProt Q14242)
T1 sequence: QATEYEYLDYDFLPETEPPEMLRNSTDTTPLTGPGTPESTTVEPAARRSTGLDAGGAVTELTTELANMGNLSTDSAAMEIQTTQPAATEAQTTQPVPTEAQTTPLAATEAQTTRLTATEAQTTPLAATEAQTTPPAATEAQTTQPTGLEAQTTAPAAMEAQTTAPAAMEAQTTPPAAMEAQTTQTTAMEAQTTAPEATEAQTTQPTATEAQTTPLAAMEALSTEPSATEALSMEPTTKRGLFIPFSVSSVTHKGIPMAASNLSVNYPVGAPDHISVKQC

mocarhagin purified from the venom of the Mozambiquan spitting cobra, Naja mossambica mossambica
proteolytic cleavage of PSGL-1: Mocarhagin cleaves a ten amino acid peptide from the mature N-terminus of PSGL-1 and abolishes the ability of PSGL-1 to bind P-selectin
